Laboratory results from publication PMC9381478, “A context-dependent and disordered ubiquitin-binding motif” (Cellular and Molecular Life Sciences: CMLS, 2022).
One block for each molecule: values may come before it.

Legend:
ubiquitin = target: T1, ubiquitin (Schizosaccharomyces pombe, UniProt P0CH06); test: NMR titration of 15N-ubiquitin (1H-15N HSQC chemical shift perturbations); assay type: binding, S. pombe; details: ratio of Kd values for ubiquitin
T1 construct: plasmid coding for S. pombe ubiquitin with an N-terminal 6xhistidine-tag, TEV-cleavage site as well as an N-terminal free cysteine; made in house; host or cells: E. coli BL21(DE3)
T1 sequence (P0CH06 1-76 limits assumed): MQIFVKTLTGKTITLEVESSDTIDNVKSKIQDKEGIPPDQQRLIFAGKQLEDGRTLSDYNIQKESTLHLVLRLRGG
Protocol: For interaction of the peptides with ^15N-ubiquitin, the lyophilized peptides were dissolved in MilliQ water and pH adjusted to 7.5. […] For the titrations of ubiquitin with each peptide, except the WT Dss1 peptide, 100 µM ubiquitin in NMR buffer was measured as one end point, and the 1 mM peptide and 100 µM ubiquitin as the other. Then, the peptide sample was titrated into the ubiquitin sample with titration points at 0, 50, 150, 300, 400, 500 and 1000 µM peptide. […] NMR samples were centrifuged 13.000×g for 5 min and transferred to either single-use 5 mm NMR tubes (Bruker) or 3 mm (Shigemi). To prepare NMR samples of ^15 N-labeled ubiquitin with full-length Dss1 and variants, lyophilized proteins were dissolved directly in the NMR buffer. The variants were each dissolved in 510 µL NMR buffer with 100 µM ubiquitin. The concentration of Dss1 in the NMR sample was determined by measuring the absorbance at 280 nm on a ND-1000 NanoDrop spectrophotometer, calibrated with the NMR buffer with 100 µM ubiquitin. The concentration of Dss1 varied between variants, depending on the purification yield. For all titrations, seven points of varying Dss1 concentration were recorded. To prepare NMR samples of ^15N-labeled ubiquitin with Spd1, Spd1 was buffer exchanged to MilliQ using a 3 kDa cut-off Amicon Ultra-0.5 ml centrifugal filter (Merk Millipore), lyophilized and resuspended in NMR buffer with 100 µM ubiquitin. […] For experiments with ubiquitin, 200 µL 1 mM ubiquitin was buffer exchanged to MilliQ water using a 3 kDa cut-off Amicon Ultra-0.5 ml centrifugal filter (Merk Millipore), lyophilized, and subsequently resuspended in 100 µL NMR buffer with 1 mM Dss1 for a final ubiquitin concentration of 2 mM and 1 mM, respectively. All samples were transferred to 3 mm (Shigemi) NMR tubes.
All NMR spectra were recorded on Bruker Avance III HD 600 MHz spectrometer with a Bruker proton-optimized quadruple resonance NMR ‘inverse’ (QCI) cryoprobe, a Bruker Avance III HD 750 MHz spectrometer with a Bruker proton-optimized triple resonance NMR ‘inverse’ (TCI) cryoprobe and a Bruker Avance Neo 800 MHz spectrometer with a Bruker carbon/nitrogen-optimized triple-resonance NMR 'observe' (TXO) cryoprobe. […] All spectra were zero-filled, apodized using cosine bells in all dimensions, Fourier transformed, and the zero-order phase was corrected manually using either nmrDraw, a component of NmrPipe or qMDD if spectra were recorded using non-linear-sampling (NLS). All spectra were analysed using the Analysis software.
The CSPs were fitted to a one-site-binding model using global fit, and the Kd-values are extracted using Eq. 2.2 Δδobs=Δδmax∙Pt+Lt+Kd-Pt+Lt+Kd^2-4Pt∙Lt^1/2/2∙Pt.
Peaks giving rise to large uncertainties in the fit, either due to weak signals or overlap, were removed after a first iteration of fitting, and the fit repeated on the remaining dataset.

[1] = Solubility noted during NMR sample preparation; assay type: physicochemical; details: NMR buffer; interaction mapped at 30 µM 15N-Spd1

Kd of full-length protein lower than for the peptide alone (ubiquitin): ~10 times
B1: full-length Dss1: recombinant full-length S. pombe Dss1 (N71C) (protein)
chain: MSRAALPSLENLEDDDEFEDFATENWPMKDTELDTGDDTLWENNWDDEDIGDDDFSVQLQAELKKKGVAAC
modifications: left off: His6-SUMO, N-terminal, cleaved

B2: Spd1: intrinsically disordered S. pombe protein, sequence printed in b198 (protein, UniProt Q10585 1-124, looked up)
chain: MHSSKRVMTTKTHVEQPESSMRPQLPESIQGSLMDVGMRVRKSISTGYKSKQTTFPAYNPPLYNTVSENIALKNTAFSYEPNGTKRPFEQAIPNYNWANPPQDFEEPEWLKPFDVVMEGTNERL
modifications: full-length
solubility [1]: low solubility
